{
  "source": "patent US10006080B2",
  "about": "“High-selectivity contact activation inhibitor based on infestin-4” (OBSCHESTVO S OGRANICHENNOY OTVETSTVENNOSTYU …, priority 2013, dated 2018)",
  "molecules": {"B1": {"name": "native infestin-4, fusion protein with thioredoxin I E. coli containing polyhistidine clusters (other)", "chain": "EVRNPCACFRNYVPVCGSDGKTYGNPCMLNCAAQTKVPGLKLVHEGRCQRSNVEQF", "notes": "It says MutB differs from it at positions 9, 12 and 14 only; also called Inf4; not shown: thioredoxin I of E. coli, fusion partner; polyhistidine clusters"}, "B2": {"name": "infestin-4 mutant MutB, fusion protein with thioredoxin I E. coli containing polyhistidine clusters (other, not shown: large carriers; small tags and cut ends)", "chain": "B1 chain with F9T, Y12F, P14A", "modifications": "cysteine pairing not given here; also: fusion with thioredoxin I and polyhistidine clusters, not given here"}},
  "key": {"fXa [1]": {"target": "fXa (Homo sapiens, UniProt P00742)", "sequence (P00742 235-488 limits assumed)": "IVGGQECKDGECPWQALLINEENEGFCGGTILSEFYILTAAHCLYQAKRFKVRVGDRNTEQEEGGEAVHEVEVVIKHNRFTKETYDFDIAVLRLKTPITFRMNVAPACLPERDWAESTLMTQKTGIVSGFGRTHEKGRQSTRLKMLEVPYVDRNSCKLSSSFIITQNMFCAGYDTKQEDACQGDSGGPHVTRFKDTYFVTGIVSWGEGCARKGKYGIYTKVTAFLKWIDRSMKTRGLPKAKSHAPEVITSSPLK", "sequence (P00742 41-179 partner limits assumed)": "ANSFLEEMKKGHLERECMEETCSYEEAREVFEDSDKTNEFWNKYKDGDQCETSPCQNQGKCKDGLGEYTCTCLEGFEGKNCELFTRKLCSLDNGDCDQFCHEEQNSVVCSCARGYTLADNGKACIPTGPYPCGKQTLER", "conditions": "Campos et al. 2004, FEBS Lett. 577:512-516; read-out: inhibition constant Ki against fXa; cited from earlier work"}, "[2]": {"system": "contact-activated coagulation", "assay": "APTT test in platelet free plasma of a healthy donor (kaolin-cephalin activation)", "type": "biochemical, human", "conditions": "10 μM inhibitor in PFP; 45 sec without inhibitor", "procedure": "The assessment of activity of the polypeptide comprising the sequence of an infestin-4 mutant MutB by its inhibition of the contact-activated coagulation shall be considered further with a reference to FIG. 1. Native infestin-4 and mutants MutB and Mut15 were added into 3 separate samples of platelet free plasma (PFP) of a healthy donor, with subsequent measuring time of contact-activated clotting in the APTT test.\nBlood plasma from healthy donors was processed according to standard protocols of blood collection for coagulation assays (Collection, Transport, and Processing of Blood Specimens for Testing Plasma-Based Coagulation Assays and Molecular Hemostasis Assays; Approved Guideline Fifth Edition by Clinical and Laboratory Standards Institute (CLSI) H21-A5 Vol. 28 No. 5). 0.38% sodium citrate was added into blood to block the calcium ions.\nThe APTT test was administered using the reagent kits “Coagulo-test” (Scientific-production association Renam, Moscow, Russia) and different concentrations of the following contact activation inhibitors: native infestin-4, MutB, and Mut15. To do that, 50 microliters of blood plasma from a healthy donor were mixed with 5.6 microliters of a 10× solution of different inhibitor concentrations and incubated for 15 minutes at 37° C. Then, according to the “Coagulo-test” manual, 25 microliters of the mixture were transferred into the cuvette of the coagulometer Helena-C2, with addition of 25 microliters of kaolin-cephalin mixture activating fXII in blood plasma. After incubation at 37° C. for 3 minutes, 25 microliters of the calcium chloride solution in the initial concentration of 25 mM was added, and the time of fibrin clot formation in the coagulometer cuvette was determined photometrically.\nAPTT dependences on concentrations of native infestin-4, MutB and Mut15 obtained in the same way as in Example 1, are shown on FIG. 1."}, "fXIa": {"target": "T1, fXIa (Homo sapiens, UniProt P03951)", "T1 construct": "factor XI into its active form, factor XIa (fXIa)", "assay": "Chromogenic test of protease inhibition in buffer, fXIa (substrate S-2366)", "type": "biochemical", "conditions": "buffer solution, summary of Table 2", "procedure": "In order to assess selectivity of the fXIIa inhibition by the polypeptide comprising the sequence of the infestin-4 mutant MutB, its inhibitory activity in buffer solution against the purified coagulation factors was determined. The polypeptide's activity was compared with the known fXIIa inhibitors: CTI, infestin-4, infestin-4-based mutant Mut15, LCTI-III. […] The standard deviation amounted to about 50% of the average value; each value was measured by performing 2-3 repeats.\n(§1) To determine the inhibition activity of such proteins as MutB, CTI, Inf4, Mut15, and LCTI-III as related to different coagulation proteases in a buffer, the chromogenic test was used: the mixture of protease and inhibitor was incubated in the wells of the plate for 15 minutes at 37° C., after which the chromogenic substrate solution was added to the mixture, and the protease activity was measured as the rate of chromogenic product formation at 37° C.\n(§2) Chromogenic substrates included a p-nitroanilide group cleaved by the corresponding proteases. After cleavage of the p-nitroanilide group from the substrate molecule, the group absorption spectrum changes, and the change of concentration of such product within time can be detected at the light wavelength of 405 nm using a plate spectrophotometer. To build a dependence curve of the protease activity from the inhibitor concentration, different inhibitor concentrations were added into several samples with the same protease concentration. After that, the inhibitor concentration able to decrease the protease activity by 50% (IC50) was determined. The inhibition constant Ki was calculated using the Cheng-Prusoff equation (Ki=IC50/(1+S/KM)), where S is the initial substrate concentration, KM is the Michaelis-Menten constant of the substrate to the protease.\nNative infestin-4 and its mutants MutB and Mut15 used here were fusion proteins with thioredoxin I E. coli containing polyhisticline clusters. […]"}, "fXIIa": {"system": "fXIIa", "conditions": "without affecting hemostasis parameters; cited from earlier work"}, "factor XIIa": {"target": "T2, factor XIIa (UniProt P00748 20-615, limits assumed)", "T2 construct": "also called fXIIa", "T2 sequence (looked up)": "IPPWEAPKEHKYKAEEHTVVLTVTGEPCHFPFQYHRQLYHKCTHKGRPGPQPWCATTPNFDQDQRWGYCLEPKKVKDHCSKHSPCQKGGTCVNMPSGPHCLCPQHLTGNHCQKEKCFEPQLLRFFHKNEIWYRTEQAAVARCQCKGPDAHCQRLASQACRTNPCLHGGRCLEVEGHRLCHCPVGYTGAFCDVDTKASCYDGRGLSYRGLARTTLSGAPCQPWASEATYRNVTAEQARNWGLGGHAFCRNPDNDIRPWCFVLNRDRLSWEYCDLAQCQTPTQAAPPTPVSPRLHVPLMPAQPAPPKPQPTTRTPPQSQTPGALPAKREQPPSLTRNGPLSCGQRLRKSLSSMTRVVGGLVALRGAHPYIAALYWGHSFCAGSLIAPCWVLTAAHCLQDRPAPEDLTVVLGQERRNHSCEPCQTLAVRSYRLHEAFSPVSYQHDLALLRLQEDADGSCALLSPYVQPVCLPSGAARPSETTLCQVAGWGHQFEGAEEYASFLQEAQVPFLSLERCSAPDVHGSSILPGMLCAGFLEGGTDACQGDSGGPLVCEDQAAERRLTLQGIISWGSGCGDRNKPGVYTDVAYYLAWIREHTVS", "assay": "chromogenic test (S-2302), IC50 converted by Cheng-Prusoff", "procedure": "as §1, §2"}, "fXa [3]": {"target": "T3, fXa (UniProt P00742 41-179; P00742 235-488, limits assumed)", "T3 construct": "also called factor Xa", "T3 sequence (P00742 41-179 limits assumed, form in doubt, chain 1 of 2)": "as the sequence (P00742 41-179 partner limits assumed) above", "T3 sequence (P00742 235-488 limits assumed, form in doubt, chain 2 of 2)": "as the sequence (P00742 235-488 limits assumed) above", "assay": "chromogenic test (S-2765), IC50 converted by Cheng-Prusoff", "procedure": "as §1, §2"}, "factor XIa": {"target": "T4, factor XIa (UniProt P03951 19-625)", "T4 construct": "also called fXIa", "assay": "chromogenic test (S-2366), IC50 converted by Cheng-Prusoff", "procedure": "as §1, §2"}},
  "note": "Positions count from the first letter of the chain named. No end group written: not given here.",
  "data": [
    {"molecule": "Inf4: domain 4 of the protein infestin from the midgut of Triatoma infestans, Kazal-type fXIIa inhibitor; PDB 2ERW (EVRNPCACFRNYVPVCGSDGKTYGNPCMLNCAAQTKVPGLKLVHEGRCQRSNVEQF; left off: large carriers; small tags and cut ends) [reference compound]", "values": [
      {"measurement": "Ki", "setting": "fXa [1]", "value": 53, "unit": "nM"},
      {"measurement": "APTT", "setting": "[2]", "value": 120, "unit": "s"},
      {"measurement": "inhibition of fXIa (in words)", "setting": "fXIa", "value": "do not inhibit"},
      {"measurement": "effect in the thrombosis model in vivo", "setting": "fXIIa", "value": "prevents vascular occlusion"}
    ]},
    {"molecule": "B1", "values": [
      {"measurement": "Ki", "setting": "factor XIIa", "value": 1, "unit": "nM"},
      {"measurement": "Ki", "setting": "fXa [3]", "value": 2000, "unit": "nM"}
    ]},
    {"molecule": "B2", "values": [
      {"measurement": "Ki", "setting": "factor XIIa", "value": 1, "unit": "nM"}
    ]},
    {"molecule": "RICPRILMECSSDSDCLAECICLENGFCG (Chemically synthesised)", "note": "[Luffa cylindrica trypsin inhibitor, LCTI-III]", "values": [
      {"measurement": "Ki", "setting": "factor XIIa", "value": 15, "unit": "nM"},
      {"measurement": "Ki", "setting": "factor XIa", "value": 30000, "unit": "nM"}
    ]}
  ]
}
